From US20010039258A1, “Active agent transport systems” (Emisphere Technologies, Inc., priority 1990, published 2001) come the findings set out here.

In data set [1] the target is T1, α-interferon (Homo sapiens, UniProt P01563).
T1 construct: purchased Schering Plough Corp
As to the kind of experiment: Isothermal titration calorimetry of perturbant complexing with α-interferon. Type of data set: binding. As to conditions: pH 7.2, 25° C. The procedure: Isothermal titration calorimetry of perturbant complexing with α-interferon was performed at 25° C. at two different pH's. The buffers used were 20 mM NaPhosphate for pH 7.2 and 20 mM NaAc for pH 3.0. α-interferon solution was dialyzed before the experiment to reach the appropriate pH. Dry perturbants were weighed and diluted in dialysate.
ITC was conducted on a MicroCal OMEGA titration calorimeter (MicroCal Inc.—Northampton, Mass.). Data points were collected every 2 seconds, without subsequent filtering. α-interferon solution placed in 1.3625 mL cell was titrated using a 250 μL syringe filled with concentrated perturbant solution. A certain amount of titrant was injected every 3-5 minutes for up to 55 injections.
A reference experiment to correct for the heat of mixing of two solutions, was performed identically except that the reaction cell was filled with buffer without active agent.
Analysis of the data was performed using the software developed at the Johns Hopkins University Biocalorimetry Center.
The titration at pH 7.2 included 53 injections of 2 μL of the perturbant of Example 30 (50 mg/mL=191.6 mM (MW 261)) and α-interferon (1.3 mg/mL=0.067 mM (MW 19400)).
The titration at pH 7.2 included two runs of […] each of 5 μL of perturbant (50 mg/mL=181 mM (FW 277)) and α-interferon (2.31 mg/mL=0.119 mM, (MW 19400)).
ITC was performed according to the method of Example 24 with 40 injections of 5 μL of the perturbant benzoyl para-amino phenylbutyric acid (7.5 mg/mL=24.59 mM, (FW 305)) and α-interferon (2.5 mg/mL=0.129 mM, (MW 19400)).
(In general: ITC needs no label: the signal is the heat of the interaction.)

The nature of data set [2]: Solubility of perturbant under the DSC buffer conditions. As to conditions: room temperature; buffer conditions of the DSC (20 mM NaPhosphate pH 7.2). It is filed as physicochemical. The procedure:
(§1) Perturbant binding DSC was conducted using 20 mM NaPhosphate buffer at pH 7.2. Dry perturbant was weighed out to make perturbant stock solutions. α-interferon stock was diluted in the buffer. α-interferon solution was not dialyzed prior to experiments for the purpose of having the same active concentration for the whole set.
DSC experiments were carried out according to the procedure of Example 19, with 0.5 mg/ml α-interferon mixed with (1) benzoyl para-amino phenylbutyric acid, (2) the perturbant of Example 22, or (3) the perturbant of Example 19.
Benzoyl para-amino phenylbutyric acid was poorly soluble under the buffer conditions. Maximum concentration at which the solution was still transparent at room temperature was ˜8 mg/mL. Therefore, the concentrations of the perturbant used were 2, 4, and 6 mg/mL. Results are illustrate in FIGS. 17 and 18. The dashed line in FIG. 17 represents the linear least squares, and the regression equation is at the top of FIG. 17.

Data set [3] has as its target T1, α-interferon. Description: Isothermal titration calorimetry of perturbant complexing with α-interferon. It is filed as binding. As to conditions: pH 7; read-out: apparent dissociation constant.
Data set [4] in a line: DSC of insulin with increasing guanidine hydrochloride. It is filed as physicochemical. The procedure: DSC was performed with […] insulin (0.83 mM assuming a molecular weight of 6,000) in 50 mM phosphate buffer, pH 7.5. Each subsequent thermogram was corrected by background subtraction of a 0.6M guanidine-phosphate buffer solution.
Insulin was freshly prepared as a concentrated stock solution in 50 mM phosphate buffer, pH 7.5, and an appropriate aliquot was diluted in buffer, filtered though a 2 micron PTFE filter, and degassed for at least 20 minutes. The reference cell contained degassed buffer.
Scanning calorimetry was performed using 5 mg 0.83 mM porcine insulin (MW 6,000) per mL in 50 mM phosphate buffer, pH 7.5. All thermograms were performed on a Microcal MC-2 scanning calorimeter equipped with the DA2 data acquisition system operated in the upscale mode at 1° C./min (up to 90° C.), and data points were collected at 20 second intervals. All scans were initiated at least 20 degrees below the observed transitions for the active agent. All thermograms were corrected for baseline subtraction and normalized for the concentration of macromolecule. According to the methods of the Johns Hopkins Biocalorimetry Center, See, for example, Ramsay et al. Biochemistry (1990) 29:8677-8693; Schon et al. Biochemistry (1989) 28:5019-5024 (1990) 29: 781-788. […]

Data set [5] is described as follows: DSC of insulin, effect of ionic strength. Type of data set: physicochemical. The following applies: pH 7.5. The protocol:
(§2) Scanning calorimetry was performed using 5 mg 0.83 mM porcine insulin (MW 6,000) per mL in 50 mM phosphate buffer, pH 7.5. All thermograms were performed on a Microcal MC-2 scanning calorimeter equipped with the DA2 data acquisition system operated in the upscale mode at 1° C./min (up to 90° C.), and data points were collected at 20 second intervals. All scans were initiated at least 20 degrees below the observed transitions for the active agent. All thermograms were corrected for baseline subtraction and normalized for the concentration of macromolecule. According to the methods of the Johns Hopkins Biocalorimetry Center, See, for example, Ramsay et al. Biochemistry (1990) 29:8677-8693; Schon et al. Biochemistry (1989) 28:5019-5024 (1990) 29: 781-788.
A sample containing 6 mg/mL insulin (0.83 mM in 50 mM phosphate buffer, pH 7.5, containing 0.25, 0.5, or 1.0M NaCl) was used. Thermograms were performed according to the procedure in Example 9 and were corrected by subtraction of a 0.5M NaCl-phosphate buffer blank as described above.
The effect of increasing ionic strength on structure was assessed in DSC experiments where individual solutions were prepared so as to contain NaCl at concentrations ranging from 0.25-3M.

Data set [6] deals with salmon calcitonin (salmon) (UniProt P01263). As to the kind of experiment: ITC, 30 C, pH 4.5; perturbant in syringe, sCt in cell.
Sequence of salmon calcitonin (salmon) (P01263 83-114 limits assumed): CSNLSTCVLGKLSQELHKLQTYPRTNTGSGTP
The target is the same in data set [7]. Description: ITC, 30 C, pH 6.6 (text: pH 6.5); perturbant in syringe, sCt in cell.
Data set [8] has the same target. Description: ITC, 30 C, pH 4.5 (30 mM sodium acetate-30 mM NaCl); perturbant in syringe, sCt in cell.
For data set [9] the target is unchanged. Description: ITC, 30 C, pH 6.6 (text: pH 6.5, 30 mM Hepes-30 mM NaCl); perturbant in syringe, sCt in cell.
The nature of data set [10]: DSC of α-interferon, pH dependence. It is filed as physicochemical. The procedure:
as §2
α-interferon stock (9.1 mg/mL) was diluted with buffer to a concentration of 0.6 mg/mL. The sample was dialyzed overnight in buffer (volume ratio of α-interferon to buffer was 1:4000). Since there was no extinction coefficient provided, concentration of the sample used was determined by comparison of absorption spectra of the sample before and after dialysis. For each particular pH, the absorbance of the nondialyzed α-interferon of known concentration was measured at 280 nm. Then after dialysis, absorbance was read again to account for the protein loss, dilution, etc. Buffer conditions and α-interferon concentrations were:
pH 3.0: Buffer—20 mM NaAc. [IFN]=0.50 mg/mL;
pH 4.1: Buffer—20 mM NaAc. [IFN]=0.53 mg/mL;
pH 5.0: Buffer—20 mM NaAc. [IFN]=0.37 mg/mL;
pH 6.0: Buffer—20 mM Na Phosphate. [IFN]=0.37 mg/mL;
pH 7.2: Buffer—20 mM Na Phosphate. [IFN]=0.48 mg/mL.
DSC scans were performed according to the procedure of Example 9. Although clear, transparent solutions of α-interferon were obtained for every pH at room temperature, there were noticeable signs of precipitation at pH 5.0 and 6.0 after the temperature scans.

A short description of data set [11]: DSC of α-interferon in GuHCl. It is filed as physicochemical. The procedure: GuHCl 5M stock solution was prepared using 20 mM sodium phosphate, pH 7.2 buffer. After dilution, the pH of the stock was checked and adjusted by concentrated HCl. To determine the concentration of final solution the refractive index referenced in Methods in Enzymology, Vol. 6, page 43 by Yasuhiko Nozaki was used.
α-interferon stock (9.1 mg/mL) was mixed with sufficient amounts of GuHCl to yield the concentrations of Table 1A below:
as §2
GuHCL/α-interferon samples were prepared according to the method of Example 4. DSC scans were performed according to the procedure of Example 9.

Data set [12] concerns the target T1, α-interferon. As to the kind of experiment: Perturbant binding DSC with α-interferon. The following applies: perturbant 0 mg/ml; α-interferon 0.64 mg/ml; pH 7.2. The protocol: as §1
DSC thermograms were generated with α-interferon at a concentration of 0.64 mg/ml and a perturbant (phenylsulfonyl-para-aminobenzoic acid purified to >98% (as determined by reverse phase chromatography prior to generation of the spectra)) at perturbant concentrations of 5, 10, 25 and 100 mg/ml. DSC was conducted on a DASM-4 differential scanning calorimeter interfaced to an IBM PC for automatic collection of the data. The scanning rate was 60° C./h.
The method of Example 19 was followed substituting α-interferon without perturbant. Results are illustrated in Table 9 below and FIG. 10. […]

pKd: −log10 of the molar value.

T1 sequence (P01563 24-188): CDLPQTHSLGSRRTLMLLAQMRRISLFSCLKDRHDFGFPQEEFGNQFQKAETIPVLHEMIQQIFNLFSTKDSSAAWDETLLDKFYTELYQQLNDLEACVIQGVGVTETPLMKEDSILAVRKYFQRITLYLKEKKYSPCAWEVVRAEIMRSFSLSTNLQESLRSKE

Regarding `O=C(O)CCCc1ccc(NC(=O)c2ccccc2)cc1` [benzoyl para-amino phenylbutyric acid], on α-interferon [1], the “log 10 Ka (1), Ka=association constant” value is 3.343 and the “ΔH (1)” value is 791.5726 cal/Mole perturbant. The “n (1), # of complexed perturbant molecules” value on α-interferon [1] (curve fitting, multiple independent sites) was 23.7. Besides, the “Maximum concentration at which the solution was still transparent” value in [2] is listed as at least 8 mg/mL. Besides, the pKd at α-interferon [3] was 4.00.

Consider Insulin: porcine insulin (MW 6,000), for which the “Tm (Cp, max)” value in [4] (0.0 M GuHCl, 50 mM phosphate pH 7.5) was 78.3 °C; in data set [4] (0.5 M GuHCl, pH 7.5) it was 79.3 °C; in [4] (1.0 M GuHCl, pH 7.5) it was 77.5 °C; in [4] (2.0 M GuHCl, pH 7.5), 69.7 °C; in [4] (3.0 M GuHCl, pH 7.5), “no transition observed”; in data set [5] (0.0 M NaCl), 78.3 °C. Further, the “Tm (Cp, max)” value in data set [5] (0.25 M NaCl), in data set [5] (0.5 M NaCl) and in [5] (1.0 M NaCl) was 80.7 °C each time.

As to “thermal condensation product of glutamic acid, aspartic acid, tyrosine, and phenyl-alanine (Glu-Asp-Tye-Phe) fractionated through a 3000 molecular weight cut-off filter”, in data set [6], the N was found to be 0.8, the delta H is 0.553 kcal/mol and the delta S was 19.8 cal/mol ° K. Also, in data set [7], the N came out at 11.6, the delta H was 0.277 kcal/mol and the delta S came to 38.3 cal/mol ° K. Besides, the pKd in [8] was 3.89. The pKd in [9] is 8.16.

As usually defined, the Tm is the temperature at the midpoint of the melting transition. As to α-Interferon, the Tm in data set [10] (pH 4.1) came to 65.64 °C; in data set [10] (pH 5.0), 67.32 °C; in [10] (pH 6.0), 65.34 °C; in data set [10] (pH 7.2), 66.84 °C; in data set [11] ([GuHCl] 0.0 M), 67.12 °C; in data set [11] ([GuHCl] 0.5 M) it was 64.43 °C. In addition, the Tm in data set [11] ([GuHCl] 1.0 M) amounted to 63.04 °C; in data set [11] ([GuHCl] 1.5 M), 60.11 °C; in data set [11] ([GuHCl] 2.0 M), 56.32 °C; in [11] ([GuHCl] 3.0 M), 45.90 °C. Moreover, the ΔH in [10] (pH 4.1) was 60.47 kcal/mol; in [10] (pH 5.0), 69.782 kcal/mol; in data set [10] (pH 6.0), 45.58 kcal/mol; in data set [10] (pH 7.2), 732.717 kcal/mol; in data set [11] ([GuHCl] 0.0 M) it was 72.562 kcal/mol; in [11] ([GuHCl] 0.5 M), 50.827 kcal/mol. The ΔH in data set [11] ([GuHCl] 1.0 M) turned out to be 41.705 kcal/mol; in [11] ([GuHCl] 1.5 M), 29.52 kcal/mol; in [11] ([GuHCl] 2.0 M) it was 24.98 kcal/mol; in data set [11] ([GuHCl] 3.0 M) it was 20.577 kcal/mol. In addition, the “Tm of α-interferon” value with α-interferon [12] amounted to 67.12 °C. The “ΔH of α-interferon” value with α-interferon [12] is 72.562 kcal/mol.
